The results in this text go back to PMC4238996 (PLoS Neglected Tropical Diseases, 2014).

B1: unnamed (parent)
chain 1: MQQPTEHTTPMDSLAPPALVIKTPHQAFTAHAAQGPVVIGRDAPAQVRIPDERISRAHVRVTYTSTGWVAVDMSSNGTFVNGVQQATIPITDGLTIHLGHPLEGIAISFSYTIAPPLAVDDATEHIEDTSDPKMVRVGAEIAARREELGLPKRELDRRGVVGQATMTDIEKGRRFPRPFTRDKIEAVLGWPRGHIMWLYEQDIQPDEERTHVLTATTPVPEITGATKMALKGFTAAADSLPPEDDPAFTDRVGALLADLRELESVAASATHSAHGTSAAALVLSDVRKLYKALMLRAAGAPGATLGQRFYAARYRAELTTQDAAAAAGLPVAIIEAAEADAPLDPAATAAVQALLTSLLSQR
chain 2: MALPLGTVVAGYVIEGVLGSGGMGTVYLARHPTLPRSDALKILSAELSQDEQFRVRFIREADLAATLSHPNIVTVFNRGETDDGQLWIAMQYVEGTTASDLHATVLTPARVAAIITDVGAALDYAHSRRVLHRDIKPSNFLVSADHERVLLADFGIARAFDDTTLTAIGSLVGTASYAAPEAIQGGSVDQRADVYSLGCALFRLLTGRAPYEDLRGPAMLMAHVLQPIPRPSHIVVGLPPAIDDVIAVAMAKDPAARFPTAGALAGAARAALSGQPLPQAPPGGPKTRIWAAPPLSYPTTRPPGISGGAISPAGFAGAAHPGLAGAASSSDERGGPRAPRRRKR

In one test the parent is B1. The test is described as follows: ELISA. As to conditions: with partner chain of the complex shown; read at the highest MupFHA concentration point, x about 1160 µM; parent: 1.6; read off a plot. (ELISA stands for enzyme-linked immunosorbent assay.)
In the case of chain 2 MALPLGTVVAGYVIEGVLGSGGMGTVYLARHPTLPRSDALKILSAELSQDEQFRVRFIREADLAATLSHPNIVTVFNRGETDDGQLWIAMQYVEGTTASDLHATVLTPARVAAIITDVGAALDYAHSRRVLHRDIKPSNFLVSADHERVLLADFGIARAFDDTTLAAIGSLVGTASYAAPEAIQGGSVDQRADVYSLGCALFRLLTGRAPYEDLRGPAMLMAHVLQPIPRPSHIVVGLPPAIDDVIAVAMAKDPAARFPTAGALAGAARAALSGQPLPQAPPGGPKTRIWAAPPLSYPTTRPPGISGGAISPAGFAGAAHPGLAGAASSSDERGGPRAPRRRKR [chain 2 T166A], the response was 1.5 O.D. 490 nm. Regarding chain 2 MALPLGTVVAGYVIEGVLGSGGMGTVYLARHPTLPRSDALKILSAELSQDEQFRVRFIREADLAATLSHPNIVTVFNRGETDDGQLWIAMQYVEGTTASDLHATVLTPARVAAIITDVGAALDYAHSRRVLHRDIKPSNFLVSADHERVLLADFGIARAFDDTTLTAIGALVGTASYAAPEAIQGGSVDQRADVYSLGCALFRLLTGRAPYEDLRGPAMLMAHVLQPIPRPSHIVVGLPPAIDDVIAVAMAKDPAARFPTAGALAGAARAALSGQPLPQAPPGGPKTRIWAAPPLSYPTTRPPGISGGAISPAGFAGAAHPGLAGAASSSDERGGPRAPRRRKR [chain 2 S170A], the response came to 0.21 O.D. 490 nm. Still for that read-out and setting: under chain 2 MALPLGTVVAGYVIEGVLGSGGMGTVYLARHPTLPRSDALMILSAELSQDEQFRVRFIREADLAATLSHPNIVTVFNRGETDDGQLWIAMQYVEGTTASDLHATVLTPARVAAIITDVGAALDYAHSRRVLHRDIKPSNFLVSADHERVLLADFGIARAFDDTTLTAIGSLVGTASYAAPEAIQGGSVDQRADVYSLGCALFRLLTGRAPYEDLRGPAMLMAHVLQPIPRPSHIVVGLPPAIDDVIAVAMAKDPAARFPTAGALAGAARAALSGQPLPQAPPGGPKTRIWAAPPLSYPTTRPPGISGGAISPAGFAGAAHPGLAGAASSSDERGGPRAPRRRKR [chain 2 K41M] stands 0.26 O.D. 490 nm.

The same test, now with this note: with partner chain of the complex shown; read at the highest MupFHA concentration point, x about 2320 µM; parent: 1; read off a plot.
Regarding chain 2 MALPLGTVVAGYVIEGVLGSGGMGTVYLARHPTLPRSDALKILSAELSQDEQFRVRFIREADLAATLSHPNIVTVFNRGETDDGQLWIAMQYVEGTTASDLHATVLTPARVAAIITDVGAALDYAHSRRVLHRDIKPSNFLVSADHERVLLADFGIARAFDDTTLTAIGSLVGTASYAAPEAIQGGSVDQRADVYSLGCALFRLLTGRAPYEDLRGPAMLMAHVLQPIPRPSHIVVGLPPAIDDVIAVAMAKDPAARFPAAGALAGAARAALSGQPLPQAPPGGPKTRIWAAPPLSYPTTRPPGISGGAISPAGFAGAAHPGLAGAASSSDERGGPRAPRRRKR [chain 2 T260A], the response worked out at 1 O.D. 490 nm. On the same count and under the same terms, under chain 2 MALPLGTVVAGYVIEGVLGSGGMGTVYLARHPTLPRSDALKILSAELSQDEQFRVRFIREADLAATLSHPNIVTVFNRGETDDGQLWIAMQYVEGTTASDLHATVLTPARVAAIITDVGAALDYAHSRRVLHRDIKPSNFLVSADHERVLLADFGIARAFDDTTLTAIGSLVGAASYAAPEAIQGGSVDQRADVYSLGCALFRLLTGRAPYEDLRGPAMLMAHVLQPIPRPSHIVVGLPPAIDDVIAVAMAKDPAARFPTAGALAGAARAALSGQPLPQAPPGGPKTRIWAAPPLSYPTTRPPGISGGAISPAGFAGAAHPGLAGAASSSDERGGPRAPRRRKR [chain 2 T174A] stands 0.58 O.D. 490 nm; under chain 2 MALPLGTVVAGYVIEGVLGSGGMGTVYLARHPTLPRSDALKILSAELSQDEQFRVRFIREADLAATLSHPNIVTVFNRGETDDGQLWIAMQYVEGTTASDLHATVLTPARVAAIITDVGAALDYAHSRRVLHRDIKPSNFLVSADHERVLLADFGIARAFDDTTLTAIGALVGTASYAAPEAIQGGSVDQRADVYSLGCALFRLLTGRAPYEDLRGPAMLMAHVLQPIPRPSHIVVGLPPAIDDVIAVAMAKDPAARFPTAGALAGAARAALSGQPLPQAPPGGPKTRIWAAPPLSYPTTRPPGISGGAISPAGFAGAAHPGLAGAASSSDERGGPRAPRRRKR [chain 2 S170A], 0.43 O.D. 490 nm.

The variants in the next test derive from B1. Put plainly: sandwich ELISA. The conditions noted are these: with partner chain of the complex shown; His6-PknQ adsorbed on a 96-well plate; equimolar amounts of GST-tagged substrates; parent: 2; read off a plot.
As to chain 1 MQQPTEHTTPMDSLAPPALVIKTPHQAFTAHAAQGPVVIGADAPAQVRIPDERISRAHVRVTYTSTGWVAVDMSSNGTFVNGVQQATIPITDGLTIHLGHPLEGIAISFSYTIAPPLAVDDATEHIEDTSDPKMVRVGAEIAARREELGLPKRELDRRGVVGQATMTDIEKGRRFPRPFTRDKIEAVLGWPRGHIMWLYEQDIQPDEERTHVLTATTPVPEITGATKMALKGFTAAADSLPPEDDPAFTDRVGALLADLRELESVAASATHSAHGTSAAALVLSDVRKLYKALMLRAAGAPGATLGQRFYAARYRAELTTQDAAAAAGLPVAIIEAAEADAPLDPAATAAVQALLTSLLSQR [chain 1 R41A], the response turned out to be 0.95 O.D. 490 nm. The same measure, in the same setting: as for chain 1 MQQPTEHTTPMDSLAPPALVIKTPHQAFTAHAAQGPVVIGRDAPAQVRIPDERIARAHVRVTYTSTGWVAVDMSSNGTFVNGVQQATIPITDGLTIHLGHPLEGIAISFSYTIAPPLAVDDATEHIEDTSDPKMVRVGAEIAARREELGLPKRELDRRGVVGQATMTDIEKGRRFPRPFTRDKIEAVLGWPRGHIMWLYEQDIQPDEERTHVLTATTPVPEITGATKMALKGFTAAADSLPPEDDPAFTDRVGALLADLRELESVAASATHSAHGTSAAALVLSDVRKLYKALMLRAAGAPGATLGQRFYAARYRAELTTQDAAAAAGLPVAIIEAAEADAPLDPAATAAVQALLTSLLSQR [chain 1 S55A], the figure is 0.38 O.D. 490 nm.
